Test system: Escherichia coli TOP10
Experiment: shrunken log2 fold change of peptide-encoding DNA abundance (4.5 h post-induction vs induction); higher = less antimicrobial activity (less host growth inhibition)
Conditions: time post-induction: 4.5 h; library: site-saturation at positions 5, 18, 19, 20
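Note: peptides expressed intracellularly from a pBAD plasmid library in pooled LB shake-flask culture, induced with 0.3% L-arabinose, DNA abundance read by NGS, three biological replicates, DESeq2 with apeglm shrinkage.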

Sequence	shrunken log2 fold change
RRIRTRPPRLPRPRPRPIESPRP	0.0133
RRIRSRPPRLPRPRPRPIIKPRP	0.18
RRIRARPPRLPRPRPRPNDSPRP	-0.225
RRIRLRPPRLPRPRPRPGYFPRP	-0.347
RRIRERPPRLPRPRPRPPTKPRP	0.774
RRIRTRPPRLPRPRPRPIACPRP	-0.0974
RRIRMRPPRLPRPRPRPDVWPRP	1.19
RRIRTRPPRLPRPRPRPGNWPRP	0.275
RRIRWRPPRLPRPRPRPRALPRP	0.354
RRIRHRPPRLPRPRPRPGPEPRP	1.6
RRIRDRPPRLPRPRPRPNEEPRP	-0.019
RRIRMRPPRLPRPRPRPCMQPRP	-0.143
RRIRVRPPRLPRPRPRPDVDPRP	-0.367
RRIRPRPPRLPRPRPRPAVQPRP	0.168
RRIRERPPRLPRPRPRPLKWPRP	0.159
RRIRWRPPRLPRPRPRPDNSPRP	-0.0707
RRIRLRPPRLPRPRPRPNNTPRP	-0.687
RRIRIRPPRLPRPRPRPIHDPRP	2.93
RRIRLRPPRLPRPRPRPQQFPRP	-0.0691
RRIRFRPPRLPRPRPRPVGNPRP	0.294
RRIRKRPPRLPRPRPRPHQDPRP	0.0154
RRIRGRPPRLPRPRPRPCWKPRP	0.175
RRIRVRPPRLPRPRPRPLDCPRP	-0.0035
RRIRERPPRLPRPRPRPTPIPRP	0.244
RRIRKRPPRLPRPRPRPTTGPRP	0.733

Sequence	shrunken log2 fold change
RRIRTRPPRLPRPRPRPQLRPRP	-0.12
RRIRARPPRLPRPRPRPPTFPRP	0.158
RRIRIRPPRLPRPRPRPKIRPRP	-0.0911
RRIRKRPPRLPRPRPRPLDPPRP	0.613
RRIRQRPPRLPRPRPRPKGVPRP	-0.00208
RRIRRRPPRLPRPRPRPNKDPRP	0.202
RRIRPRPPRLPRPRPRPAFMPRP	-0.0434
RRIRKRPPRLPRPRPRPLNKPRP	-0.0644
RRIRYRPPRLPRPRPRPGPAPRP	0.0198
RRIRARPPRLPRPRPRPAATPRP	0.914
RRIRDRPPRLPRPRPRPTPVPRP	0.405
RRIRIRPPRLPRPRPRPLCAPRP	-0.183
RRIRLRPPRLPRPRPRPSHVPRP	-0.0453
RRIRPRPPRLPRPRPRPYCFPRP	-0.655
RRIRHRPPRLPRPRPRPCPPPRP	-0.845
RRIRRRPPRLPRPRPRPRWTPRP	0.453
RRIRLRPPRLPRPRPRPINIPRP	-0.735
RRIRHRPPRLPRPRPRPPYPPRP	-0.0246
RRIRWRPPRLPRPRPRPMILPRP	-0.14
RRIRSRPPRLPRPRPRPKPHPRP	0.213
RRIRGRPPRLPRPRPRPMIWPRP	0.589
RRIRHRPPRLPRPRPRPNLQPRP	-0.0526
RRIRQRPPRLPRPRPRPAPHPRP	0.343
RRIRMRPPRLPRPRPRPHPIPRP	-0.116
RRIRERPPRLPRPRPRPQEQPRP	-0.0202

Sequence	shrunken log2 fold change
RRIRERPPRLPRPRPRPNRHPRP	-0.516
RRIRARPPRLPRPRPRPKFYPRP	-0.214
RRIRRRPPRLPRPRPRPWDWPRP	0.428
RRIRKRPPRLPRPRPRPGLDPRP	0.626
RRIRNRPPRLPRPRPRPTALPRP	-0.18
RRIRHRPPRLPRPRPRPPTWPRP	0.0706
RRIRNRPPRLPRPRPRPRQSPRP	0.112
RRIRQRPPRLPRPRPRPLNNPRP	-0.586
RRIRKRPPRLPRPRPRPKQKPRP	0.054
RRIRLRPPRLPRPRPRPGWEPRP	0.14
RRIRLRPPRLPRPRPRPRCCPRP	0.0851
RRIRVRPPRLPRPRPRPPKEPRP	0.0261
RRIRNRPPRLPRPRPRPDFRPRP	-0.0186
RRIRDRPPRLPRPRPRPNAEPRP	0.359
RRIRYRPPRLPRPRPRPVMQPRP	-0.315
RRIRERPPRLPRPRPRPGECPRP	-0.0577
RRIRFRPPRLPRPRPRPTEEPRP	0.0249
RRIRYRPPRLPRPRPRPSFEPRP	-0.689
RRIRTRPPRLPRPRPRPLVMPRP	-0.0423
RRIRHRPPRLPRPRPRPVVDPRP	-0.109
RRIRVRPPRLPRPRPRPHCHPRP	-0.105
RRIRCRPPRLPRPRPRPWAWPRP	-0.105
RRIRHRPPRLPRPRPRPNACPRP	-0.0122
RRIRSRPPRLPRPRPRPTWAPRP	0.518
RRIRFRPPRLPRPRPRPIKTPRP	-0.0134

Sequence	shrunken log2 fold change
RRIRNRPPRLPRPRPRPCTRPRP	-0.184
RRIRLRPPRLPRPRPRPANKPRP	-0.0711
RRIRIRPPRLPRPRPRPDIIPRP	-0.0935
RRIRFRPPRLPRPRPRPARIPRP	-0.0549
RRIRWRPPRLPRPRPRPKPNPRP	0.367
RRIRARPPRLPRPRPRPEFYPRP	0.329
RRIRNRPPRLPRPRPRPDVIPRP	-0.135
RRIRTRPPRLPRPRPRPWWYPRP	-0.308
RRIRVRPPRLPRPRPRPSKDPRP	-0.563
RRIRGRPPRLPRPRPRPWLHPRP	0.106
RRIRIRPPRLPRPRPRPVRAPRP	0.172
RRIRLRPPRLPRPRPRPAPAPRP	0.512
RRIRARPPRLPRPRPRPMNWPRP	0.351
RRIRERPPRLPRPRPRPGQHPRP	-0.242
RRIRCRPPRLPRPRPRPRFPPRP	-0.0867
RRIRWRPPRLPRPRPRPHTAPRP	-0.0505
RRIRLRPPRLPRPRPRPMQAPRP	-0.0495
RRIRMRPPRLPRPRPRPYIHPRP	-0.262
RRIRIRPPRLPRPRPRPPLMPRP	-0.16
RRIRERPPRLPRPRPRPHLIPRP	-0.207
RRIRARPPRLPRPRPRPYSTPRP	-0.563
RRIRQRPPRLPRPRPRPTAMPRP	0.0174
RRIRMRPPRLPRPRPRPCCYPRP	-0.427
RRIRARPPRLPRPRPRPMRGPRP	1.56
RRIRPRPPRLPRPRPRPWIWPRP	-0.186

Sequence	shrunken log2 fold change
RRIRVRPPRLPRPRPRPTHTPRP	0.0927
RRIRQRPPRLPRPRPRPIQIPRP	-0.105
RRIRGRPPRLPRPRPRPDGIPRP	-0.0219
RRIRTRPPRLPRPRPRPRIQPRP	0.214
RRIRLRPPRLPRPRPRPQKQPRP	0.17
RRIRRRPPRLPRPRPRPGCGPRP	0.657
RRIRERPPRLPRPRPRPQKEPRP	-0.0239
RRIRYRPPRLPRPRPRPLRWPRP	0.184
RRIRLRPPRLPRPRPRPWNIPRP	-0.176
RRIRFRPPRLPRPRPRPENGPRP	-0.166
RRIRWRPPRLPRPRPRPTRIPRP	1.97
RRIRLRPPRLPRPRPRPLDYPRP	-0.157
RRIRCRPPRLPRPRPRPMLAPRP	0.379
RRIRPRPPRLPRPRPRPRGSPRP	0.285
RRIRVRPPRLPRPRPRPVGIPRP	-0.0251
RRIRSRPPRLPRPRPRPPNNPRP	-0.404
RRIRHRPPRLPRPRPRPRRPPRP	0.385
RRIRGRPPRLPRPRPRPNECPRP	0.421
RRIRFRPPRLPRPRPRPMRRPRP	0.542
RRIRNRPPRLPRPRPRPTEAPRP	0.21
RRIRQRPPRLPRPRPRPEHSPRP	-0.0123
RRIRRRPPRLPRPRPRPWYFPRP	-0.204
RRIRERPPRLPRPRPRPPEMPRP	0.0477
RRIRQRPPRLPRPRPRPYGFPRP	0.0147
RRIRDRPPRLPRPRPRPHWCPRP	-0.116

— the supplement of paper PMC9112550, “Optimization of the antimicrobial peptide Bac7 by deep mutational scanning” (BMC Biology, 2022)
